Test results as given in PMC5282649, “Binding site of restriction-modification system controller protein in Mollicutes”.

What was measured:
[1] = molecular target: T1, HsdC (controller protein of type I RM-system) (Mycoplasma gallisepticum S6, UniProt A0A0F6CKR7 1-64); assay: EMSA titration; printed as binding constant; 20 mM Tris-HCl pH 7.5, 100 mM KCl, 6% glycerol, 15 min at 37 °C; 20 pmol protein with 10 pmol dsDNA; 6% acrylamide gel, TB buffer pH 8.3, 10 °C, EtBr stain; conditions: protein: recombinant; tags: C-terminal His-tag (pETm); chain copies: 2
MraZ [2] = molecular target: T2, MraZ (UniProt Q7NB78 1-142); assay: EMSA; strength comparable to own site; 20 mM Tris-HCl pH 7.5, 100 mM KCl, 6% glycerol, 15 min at 37 °C; 20 pmol protein with 10 pmol dsDNA; 6% acrylamide gel, TB buffer pH 8.3, 10 °C, EtBr stain; conditions: protein: recombinant; chain copies: 8
T2 sequence: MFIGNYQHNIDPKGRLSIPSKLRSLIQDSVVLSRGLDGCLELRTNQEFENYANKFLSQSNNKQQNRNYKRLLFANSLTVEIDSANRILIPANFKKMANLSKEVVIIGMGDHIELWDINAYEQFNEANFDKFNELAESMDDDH

[3] = molecular target: T1, HsdC (controller protein of type I …); assay: EMSA; similar or slightly weaker than PhsdC; 20 mM Tris-HCl pH 7.5, 100 mM KCl, 6% glycerol, 15 min at 37 °C; 20 pmol protein with 10 pmol dsDNA; 6% acrylamide gel, TB buffer pH 8.3, 10 °C, EtBr stain; conditions: protein: recombinant; tags: C-terminal His-tag (pETm); chain copies: 2
MraZ [4] = molecular target: T2, MraZ; assay: EMSA; control; 20 mM Tris-HCl pH 7.5, 100 mM KCl, 6% glycerol, 15 min at 37 °C; 20 pmol protein with 10 pmol dsDNA; 6% acrylamide gel, TB buffer pH 8.3, 10 °C, EtBr stain; conditions: protein: recombinant; chain copies: 8

B1: PhsdC-WT (dsDNA)
DNA 1: TTATCGGCTTTGTGTTAAAATAGTGTTAACGATTTTGAAG
DNA 2: CTTCAAAATCGTTAACACTATTTTAACACAAAGCCGATAA
Kd [1]: ~5 nM | binding result (MraZ [2]): binds

B2: PclpB (dsDNA)
DNA 1: TAATAGCCTAAGTGCTAATTTTTTGTTATAATAAATCTAT
DNA 2: ATAGATTTATTATAACAAAAAATTAGCACTTAGGCTATTA
binding result [3]: binds

B3: PtrnM (dsDNA)
DNA 1: ATTGTTATTATATGATAATAATGTGTAACACATCGCGGGA
DNA 2: TCCCGCGATGTGTTACACATTATTATCATATAATAACAAT
binding result [3]: binds

B4: PmraZ (dsDNA)
DNA 1: AATTCAAAAGTGTTAAAAAGTGTGAGAAAGTGGGAAAAAT
DNA 2: ATTTTTCCCACTTTCTCACACTTTTTAACACTTTTGAATT
binding result (MraZ [4]): binds
